# Experimental data reported in the supplement of paper PMC11865577.
# Legend:
# Experiment in all cases: pull-down binding Z-score (relative to library population); higher = stronger binding
# Conditions in all cases: RNA library: Library-2
# [1] = tested on: TO-3-N3-2 (biotin conjugate)
# Procedure, shortened: (§1)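 Cy5- or Cy3-end-labelled RNA library (1 μg) was heat-folded in phosphate/NaCl/KCl buffer and incubated 60 min at 25 °C with streptavidin beads carrying 100 pmol biotin-conjugated small molecule. After three washes, bound RNA was eluted in hot SDS and hybridised 20 h at 55.5 °C to a DNA barcode microarray. Binding was scored by subtracting a beads-only control, averaging barcoded replicate probes after dropping highest and lowest, and converting to a Z-score against library mean and standard deviation.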
# [2] = tested on: TO-3-N3 (biotin conjugate)
# Procedure, shortened: as §1
# [3] = tested on: TO-N3-2 (biotin conjugate)
# Procedure, shortened: as §1
# TO-N3 (biotin conjugate) = tested on: TO-N3 (biotin conjugate)
# Procedure, shortened: as §1
Sequence,pull-down binding Z-score [1],pull-down binding Z-score [2],pull-down binding Z-score [3],pull-down binding Z-score (TO-N3 (biotin conjugate))
AACGAACUUUAAAAUCUGUGUGGCUGUCACUCGGCUGCAUGCUUAGUGCACUCACGCAGUAUAAUUAAUAACUAAUUACUGUCGUU,-0.0969,-1.01,-0.131,-0.781
AACGGGGCGGGCCCUGGGCGGGGUAA [G4_2A2_VEGF-Pu22-mt2],10.6,8.94,5.33,7.22
AACGGGGCGGGCCGGGGGCGGGGUAA [G4_2A2_VEGF-Pu22],10.4,8.27,4.88,6.62
AACGGGGCGGGCCUCGGGCGGGGUAA [G4_2A2_VEGF-Pu22-mt3],10.6,8.63,5.08,6.92
AACGGGGCGGGCCUGGGCGGGGUAA [G4_2A2_VEGF-Pu22-del],11,8.83,5.22,7.15
AACGGGGCGGGCCUUGGGCGGGGUAA [G4_2A2_VEGF-Pu22-mt],10.6,8.69,5.19,7.05
AACUACUAUUCAAACAAUUGUUGAGGUUCAACCUCAAUUAGAGAUGGAACUUACACCAGUUGUUCAGACUAUUGAAGUGAAUAGUUUUAGUGGUU,-0.609,-0.295,-0.981,-0.383
AACUGAAAGUAAACCUUCAGUU,-0.384,-0.172,-1.3,-0.401
AACUGCUUUUGGCUUAGUUGCAGAGUGGUU,-0.132,-0.63,-0.255,-0.115
AACUGGUAAUACACUUCAGUGUAUAAUGCUAGUU,-0.418,-0.966,-1.89,-1.55
AACUGUGAUGUUGUAAUAGGAAUUGUCAACAACACAGUU,-0.0554,-0.296,-1,-0.618
AACUUCUUAAGAGUGCUUAUGAAAAUUUUAAUCAGCACGAAGUU,0.972,0.425,-0.771,-0.246
AACUUUAAUGUU [SHAPE_invitro_SARS-CoV-2_Motif_263],-0.765,0.212,-1.33,0.00196
AACUUUAGCUUGUUUUGUGCUUGCUGCUGUU,-0.0892,0.701,-0.708,0.34
AAGAAAGUUGAUGGUGUUGUCCAACAAUUACCUGAAACUUACUU [DMSMaPseq_invitro_SARS-CoV-2_Motif_358],-0.423,-1.04,-1.44,-1.34
AAGAAGCUGCGCUGUGCACCUUUUU [DMSMaPseq_invitro_SARS-CoV-2_Motif_178],-0.354,-0.433,0.126,-0.0759
AAGAAGGUCAAAUCAAUGAUAUGAUUUUAUCUCUUCUU,0.176,-0.253,-1.06,-0.543
AAGACUCAUCUCUAUGAUGGGUUUU,-0.575,-0.938,-1.46,-1.34
AAGAGAAAGUCAACAUCAAUAUUGUUGGUGACUUUAAACUU,-0.0741,0.608,-0.494,0.557
AAGCUGAUGAGUACGAACUUAUGUACUCAUUCGUUU,-0.284,-0.634,-0.895,-0.877
AAGGAGCUGGUGGCCAUAGUUACGGCGCCGAUCUAAAGUCAUUUGACUUAGGCGACGAGCUUGGCACUGAUCCUU [DMSMaPseq_invitro_SARS-CoV-2_Motif_14],0.134,0.0504,0.492,0.349
AAGGAUGCUACUCCUU,-0.789,-0.922,-1.36,-1.32
AAGGCUGAUGAAACUCAAGCCUU,-0.269,-0.506,-0.106,-0.413
AAGGGAGGGGCGGGUCGGGAA [G4_2A2_NRAS],11.1,8.72,5.24,7.02
AAGGGGGCCGUGGGGUGGGAGCUGGGGAA [G4_2A2_BCL2],9.67,8.07,4.88,6.6
AAGGUAAAACCAACAGUGGUUGUUAAUGCAGCCAAUGUUUACCUU [DMSMaPseq_invitro_SARS-CoV-2_Motif_60],-0.217,-0.572,-0.952,-0.792
AAGGUAAGAGGGAUACUUACCUG [U1snRNP5ss-26],-0.286,-0.614,-0.262,-0.673
AAGGUACAGCAGAUACUUACCUG [U1snRNP5ss-22],0.198,-0.32,0.0449,-0.213
